Test results reported in patent publication US6987168.
Where “and” joins values, the source holds several entries; their conditions need not be identical. Equal entries are not always repeated.

Columns and labels:
Test in all cases: cell-based or functional assay
[1] = biological target: recombinant human tryptase (Promega) (human) (UniProt Q15661); conditions: scale: % of the activity in the absence of inhibitor
tissue kallikrein = biological target: tissue kallikrein
plasmin = biological target: plasmin
trypsin = biological target: trypsin

Sequence of UniProt Q15661 (Q15661 31-275): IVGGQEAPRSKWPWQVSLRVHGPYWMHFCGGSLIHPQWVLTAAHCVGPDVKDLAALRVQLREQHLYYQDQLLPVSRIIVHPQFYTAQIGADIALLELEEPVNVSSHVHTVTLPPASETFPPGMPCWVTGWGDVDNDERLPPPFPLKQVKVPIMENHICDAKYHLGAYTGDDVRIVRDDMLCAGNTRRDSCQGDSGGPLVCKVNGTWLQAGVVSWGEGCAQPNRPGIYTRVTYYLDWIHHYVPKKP

Row | Substance | residual catalytic activity of tryptase (n-α-benzoyl-DL-Arg-p-nitroanilide, absorbance at 405 nm) after preincubation with rTdPI [1] | tissue kallikrein activity (n-benzoyl-Pro-Phe-Arg-pNA, absorbance at 410 nm); percent inhibition at 7.5 µM rTdPI (% inhibition at 7.5 µM) (tissue kallikrein) | concentration corresponding with 50% plasmin inhibition (peptide release from resorufin-labelled casein); one of two values from two assumed molecular masses (12 kDa or 13.5 kDa) (plasmin) | concentration for 50% trypsin inhibition (peptide release from resorufin-labelled casein); one of two values from two assumed molecular masses (12 kDa or 13.5 kDa) (trypsin) | concentration corresponding with 50% plasmin inhibition (peptide release from resorufin-labelled casein) (plasmin) | concentration for 50% trypsin inhibition (peptide release from resorufin-labelled casein) (trypsin)
1 | Recombinant tick-derived protease inhibitor protein (rTdPI), histidine-tagged | 33 | 50 | 0.32 µM and 0.43 µM | 0.044 µM and 0.033 µM |  | 
2 | soybean trypsin inhibitor (from UniProt P01070 25-205) |  |  |  |  | 0.23 µM | 0.026 µM
